From publication PMC12256440 come the findings set out here.

The assay concerns the target MSC membrane glycoproteins (plasminogen membrane receptors) (human (endogenous in MSCs)).

Glu-plasminogen (natural protein) registered a Michaelis-Menten constant of plasmin formation on scuPA-treated MSCs, plasminogen 0-2 μM, chromogenic substrate CBS0065 of 0.5 µM.
